# Measurements taken from patent US20170247440A1 (Hoffmann-La Roche, published 2017).
# Read-outs that look alike come from different tables or passages of the source.
# B1: antibody 0086 (antibody, V domains shown)
# VH: EVQLVESGGGLVQPGGSLRLSCAASGFTFSSYWMSWVRQAPEKGLEWVSTISDGGGLTYYADSVKGRFTISRDNAKNSLYLQMNSLRAEDTAVYYCAESGGYTDWLFGYWGQGTLVTVSS
# VL: not shown
# B2: antibody 0085 (antibody, V domains shown)
# VH: B1 VH
# VL: not shown
# B3: mumAb (murine anti-human PDGF-B antibody) (antibody, V domains shown)
# VH: QVQLQQSGAELMKPGASVKISCKATGYTFSSYWIEWVKQRPGHGLEWIGEILPGSGSTNYNEKFKVKATFTADTSSNTAYMQLSSLTSEDSAVYYCAQTTQDFDSWGQGTTLTVSS
# VL: DIVLTQSPGSLAVSLGQRATISCRASESVDIYGYSFMHWYQQKPGQPPKLLIYRASNLESGIPARFSGSGSRTDFTLTINPVEADDVATYYCQQSNEDPRTFGGGTKLEIK
# B4: antibody 0117 (bispecific anti-VEGF/PDGF-B CrossMab antibody) (bispecific antibody, human IgG1, kappa, L234A L235A)
# chain 1: DIQLTQSPSSLSASVGDRVTITCSASQDISNYLNWYQQKPGKAPKVLIYFTSSLHSGVPSRFSGSGSGTDFTLTISSLQPEDFATYYCQQYSTVPWTFGQGTKVEIKSSASTKGPSVFPLAPSSKSTSGGTAALGCLVKDYFPEPVTVSWNSGALTSGVHTFPAVLQSSGLYSLSSVVTVPSSSLGTQTYICNVNHKPSNTKVDKKVEPKSCDKTHTCPPCPAPEAAGGPSVFLFPPKPKDTLMASRTPEVTCVVVDVSHEDPEVKFNWYVDGVEVHNAKTKPREEQYNSTYRVVSVLTVLAQDWLNGKEYKCKVSNKALGAPIEKTISKAKGQPREPQVYTLPPCRDELTKNQVSLWCLVKGFYPSDIAVEWESNGQPENNYKTTPPVLDSDGSFFLYSKLTVDKSRWQQGNVFSCSVMHEALHNAYTQKSLSLSPGK
# chain 2: not shown
# chain 3: EVQLVESGGGLVQPGGSLRLSCAASGYDFTHYGMNWVRQAPGKGLEWVGWINTYTGEPTYAADFKRRFTFSLDTSKSTAYLQMNSLRAEDTAVYYCAKYPYYYGTSHWYFDVWGQGTLVTVSSASVAAPSVFIFPPSDEQLKSGTASVVCLLNNFYPREAKVQWKVDNALQSGNSQESVTEQDSKDSTYSLSSTLTLSKADYEKHKVYACEVTHQGLSSPVTKSFNRGEC
# chain 4: not shown
# notes: also called anti-PDGFB/VEGF antibody
# B5: antibody 0144 (bispecific anti-ANG2/PDGF-B CrossMab antibody) (bispecific antibody, human IgG1, kappa, L234A L235A)
# heavy 1: SYVLTQPPSVSVAPGQTARITCGGNNIGSKSVHWYQQKPGQAPVLVVYDTSDRPSGIPERFSGSNSGNTATLTISRVEAGDEADYYCQVWDSSSDHWVFGGGTKLTVLSSASTKGPSVFPLAPSSKSTSGGTAALGCLVKDYFPEPVTVSWNSGALTSGVHTFPAVLQSSGLYSLSSVVTVPSSSLGTQTYICNVNHKPSNTKVDKKVEPKSCDKTHTCPPCPAPEAAGGPSVFLFPPKPKDTLMASRTPEVTCVVVDVSHEDPEVKFNWYVDGVEVHNAKTKPREEQYNSTYRVVSVLTVLAQDWLNGKEYKCKVSNKALGAPIEKTISKAKGQPREPQVYTLPPCRDELTKNQVSLWCLVKGFYPSDIAVEWESNGQPENNYKTTPPVLDSDGSFFLYSKLTVDKSRWQQGNVFSCSVMHEALHNAYTQKSLSLSPGK
# heavy 2: not shown
# light 1: not shown
# light 2: not shown
# Tests used:
# human PDGF-BB [1] = biological target: T1, human PDGF-BB (human, UniProt P01127 82-190); assay: cell-based or functional assay
# human PDGF-BB [2] = biological target: T1, human PDGF-BB; assay: cell-based or functional assay; remark: listed apart in the source
# human PDGF-BB [3] = biological target: T1, human PDGF-BB; assay: SPR, on immobilized human PDGF-BB (Example 32); design: t½: unit not given here
# human PDGF-BB [4] = biological target: T1, human PDGF-BB; assay: cell-based or functional assay; remark: listed apart in the source
# human PDGF-BB [5] = biological target: T1, human PDGF-BB; assay: cell-based or functional assay; remark: listed apart in the source
# [6] = biological target: T2, human ANG2-RBD-mouse Fc-region fusion (human, UniProt O15123 275-496, limits assumed); assay: cell-based or functional assay
# T2 sequence (looked up): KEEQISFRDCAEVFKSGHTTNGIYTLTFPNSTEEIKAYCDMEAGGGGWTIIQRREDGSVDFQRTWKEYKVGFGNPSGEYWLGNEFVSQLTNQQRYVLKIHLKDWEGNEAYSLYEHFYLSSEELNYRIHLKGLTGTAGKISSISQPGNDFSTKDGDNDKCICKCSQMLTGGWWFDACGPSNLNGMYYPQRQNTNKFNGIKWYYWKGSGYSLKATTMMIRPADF
# T1 sequence (P01127 82-190 limits assumed): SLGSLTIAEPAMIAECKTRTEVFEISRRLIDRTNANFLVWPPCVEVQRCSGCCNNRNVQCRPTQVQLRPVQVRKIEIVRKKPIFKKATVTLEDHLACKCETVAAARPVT
Binder,Balb-C3T3 Proliferation % neutralization (human PDGF-BB [1]),Balb-C3T3 Proliferation IC50 (human PDGF-BB [1]),Pericytes Migration % neutralization (human PDGF-BB [1]),Pericytes Migration IC50 (human PDGF-BB [1]),Pericytes Proliferation % neutralization (human PDGF-BB [1]),Pericytes Proliferation IC50 (human PDGF-BB [1]),other results
B1,100%,0.11 nM,100%,0.09 nM,100%,0.09 nM,–
B2,100%,0.06 nM,90%,0.15 nM,100%,0.11 nM,–
B3,–,–,–,–,–,–,Balb-C3T3 Proliferation IC50 (human PDGF-BB [2]): 0.179 nM; Pericytes Migration IC50 (human PDGF-BB [2]): 0.08 nM; Pericytes Proliferation IC50 (human PDGF-BB [2]): 0.21 nM
B4,–,–,–,–,–,–,Kd (human PDGF-BB [3]): 3 nM; koff (human PDGF-BB [3]): 0.000245 s⁻¹; kon (human PDGF-BB [3]): 76700 M⁻¹ s⁻¹; t½ (human PDGF-BB [3]): 47; IC50 Migration-Inhibition human pericytes (human PDGF-BB [4]): 0.06 nM; IC50 Phospho-Inhibition human pericytes (human PDGF-BB [4]): 0.055 nM; IC50 Proliferation 3T3 (human PDGF-BB [5]): 0.019 nM; IC50 Proliferation human pericytes (human PDGF-BB [5]): 0.016 nM
B5,–,–,–,–,–,–,ANG2 specific pTie2-ELISA [6]: 6 fold
